The values that follow come from article PMC6212786 (Nucleic Acids Research, 2018).

First the molecules themselves.
B1: T4 sliding clamp gp45, full length (trimer) (natural protein, bacteriophage T4, UniProt P04525 1-228, looked up)
chain: MKLSKDTTALLKNFATINSGIMLKSGQFIMTRAVNGTTYAEANISDVIDFDVAIYDLNGFLGILSLVNDDAEISQSEDGNIKIADARSTIFWPAADPSTVVAPNKPIPFPVASAVTEIKAEDLQQLLRVSRGLQIDTIAITVKEGKIVINGFNKVEDSALTRVKYSLTLGDYDGENTFNFIINMANMKMQPGNYKLLLWAKGKQGAAKFEGEHANYVVALEADSTHDF

Assay [1] has as its target B1. The experiment in a line: ITC.
Assay [2] concerns the target T1, Full-length wild-type T4 DNA ligase (gp30) (bacteriophage T4, UniProt P00970 1-487).
T1 sequence (looked up): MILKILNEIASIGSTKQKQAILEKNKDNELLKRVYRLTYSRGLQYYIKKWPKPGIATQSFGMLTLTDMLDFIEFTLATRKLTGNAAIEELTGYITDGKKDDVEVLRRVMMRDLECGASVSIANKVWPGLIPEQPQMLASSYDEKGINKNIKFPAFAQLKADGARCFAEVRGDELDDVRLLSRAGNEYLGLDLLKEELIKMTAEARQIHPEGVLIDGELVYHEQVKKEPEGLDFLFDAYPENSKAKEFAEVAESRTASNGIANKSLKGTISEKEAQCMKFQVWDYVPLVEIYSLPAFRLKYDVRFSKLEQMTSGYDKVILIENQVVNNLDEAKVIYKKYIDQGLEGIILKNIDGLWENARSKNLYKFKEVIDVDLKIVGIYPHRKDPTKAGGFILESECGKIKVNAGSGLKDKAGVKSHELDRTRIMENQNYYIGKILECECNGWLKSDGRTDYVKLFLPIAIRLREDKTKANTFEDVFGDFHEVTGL
The experiment in a line: SEC.

The Kd is the free concentration of one partner at which half of the binding sites on the other are occupied at equilibrium, for simple one-to-one binding. Read a high Kd as weaker binding. For orientation: stoichiometry N means a count of units in the complex or per binding partner. On to KKEPEGLDFLFDA [T4 ligase loop peptide KKEPEGLDFLFDA], for which, in assay [1], the Kd came out at 10.7 µM and the “stoichiometry N” value stood at 3 peptides per gp45 trimer.

Consider B1, for which the binding result in assay [2] was “binds”.
